Assay results as given in US8999727.

Key:
[1] = biological target: truncated TSH receptor chimera B (extracellular portion) fused with the secretory alkaline phosphatase (human TSHR with rat LH-CGR subsequence); test: bridge assay: standard at 0.5 IU/L on plate-bound TSH receptor chimera B, detected with SEAP-chimera B; RLU relative to zero serum
[2] = biological target: truncated TSH receptor chimera B (extracellular portion) fused with the secretory alkaline phosphatase (human TSHR with rat LH-CGR subsequence); test: bridge assay: standard at 0.7 IU/L on plate-bound TSH receptor chimera B, detected with SEAP-chimera B, chemiluminescence
[3] = biological target: truncated TSH receptor chimera B (extracellular portion) fused with the secretory alkaline phosphatase (human TSHR with rat LH-CGR subsequence); test: bridge assay: standard at 0.8 IU/L on plate-bound TSH receptor chimera B, detected with SEAP-chimera B; RLU relative to zero serum
[4] = biological target: truncated TSH receptor chimera B (extracellular portion) fused with the secretory alkaline phosphatase (human TSHR with rat LH-CGR subsequence); test: bridge assay: standard at 0.2 IU/L on plate-bound TSH receptor chimera B, detected with SEAP-chimera B, chemiluminescence
[5] = biological target: truncated TSH receptor chimera B (extracellular portion) fused with the secretory alkaline phosphatase (human TSHR with rat LH-CGR subsequence); test: bridge assay: standard at 0.8 IU/L on plate-bound TSH receptor chimera B, detected with SEAP-chimera B, chemiluminescence
[6] = biological target: truncated TSH receptor chimera B (extracellular portion) fused with the secretory alkaline phosphatase (human TSHR with rat LH-CGR subsequence); test: bridge assay: standard at 1.0 IU/L on plate-bound TSH receptor chimera B, detected with SEAP-chimera B, chemiluminescence
[7] = biological target: truncated TSH receptor chimera B (extracellular portion) fused with the secretory alkaline phosphatase (human TSHR with rat LH-CGR subsequence); test: bridge assay: standard at 0.5 IU/L on plate-bound TSH receptor chimera B, detected with SEAP-chimera B, chemiluminescence
[8] = biological target: truncated TSH receptor chimera B (extracellular portion) fused with the secretory alkaline phosphatase (human TSHR with rat LH-CGR subsequence); test: bridge assay: standard at 2.0 IU/L on plate-bound TSH receptor chimera B, detected with SEAP-chimera B, chemiluminescence
[9] = biological target: truncated TSH receptor chimera B (extracellular portion) fused with the secretory alkaline phosphatase (human TSHR with rat LH-CGR subsequence); test: bridge assay: standard at 0.1 IU/L on plate-bound TSH receptor chimera B, detected with SEAP-chimera B; RLU relative to zero serum
[10] = biological target: truncated TSH receptor chimera B (extracellular portion) fused with the secretory alkaline phosphatase (human TSHR with rat LH-CGR subsequence); test: bridge assay: standard at 0.3 IU/L on plate-bound TSH receptor chimera B, detected with SEAP-chimera B; RLU relative to zero serum
[11] = biological target: truncated TSH receptor chimera B (extracellular portion) fused with the secretory alkaline phosphatase (human TSHR with rat LH-CGR subsequence); test: bridge assay: standard at 0.3 IU/L on plate-bound TSH receptor chimera B, detected with SEAP-chimera B, chemiluminescence
[12] = biological target: truncated TSH receptor chimera B (extracellular portion) fused with the secretory alkaline phosphatase (human TSHR with rat LH-CGR subsequence); test: bridge assay: standard at 0.2 IU/L on plate-bound TSH receptor chimera B, detected with SEAP-chimera B; RLU relative to zero serum
[13] = biological target: truncated TSH receptor chimera B (extracellular portion) fused with the secretory alkaline phosphatase (human TSHR with rat LH-CGR subsequence); test: bridge assay: standard at 15.0 IU/L on plate-bound TSH receptor chimera B, detected with SEAP-chimera B, chemiluminescence
[14] = biological target: truncated TSH receptor chimera B (extracellular portion) fused with the secretory alkaline phosphatase (human TSHR with rat LH-CGR subsequence); test: bridge assay: standard at 0.7 IU/L on plate-bound TSH receptor chimera B, detected with SEAP-chimera B; RLU relative to zero serum
[15] = biological target: truncated TSH receptor chimera B (extracellular portion) fused with the secretory alkaline phosphatase (human TSHR with rat LH-CGR subsequence); test: bridge assay: standard at 5.0 IU/L on plate-bound TSH receptor chimera B, detected with SEAP-chimera B; RLU relative to zero serum
[16] = biological target: truncated TSH receptor chimera B (extracellular portion) fused with the secretory alkaline phosphatase (human TSHR with rat LH-CGR subsequence); test: bridge assay: standard at 0.4 IU/L on plate-bound TSH receptor chimera B, detected with SEAP-chimera B, chemiluminescence
[17] = biological target: truncated TSH receptor chimera B (extracellular portion) fused with the secretory alkaline phosphatase (human TSHR with rat LH-CGR subsequence); test: bridge assay: standard at 1.0 IU/L on plate-bound TSH receptor chimera B, detected with SEAP-chimera B; RLU relative to zero serum
[18] = biological target: truncated TSH receptor chimera B (extracellular portion) fused with the secretory alkaline phosphatase (human TSHR with rat LH-CGR subsequence); test: bridge assay: standard at 0.6 IU/L on plate-bound TSH receptor chimera B, detected with SEAP-chimera B; RLU relative to zero serum
[19] = biological target: truncated TSH receptor chimera B (extracellular portion) fused with the secretory alkaline phosphatase (human TSHR with rat LH-CGR subsequence); test: bridge assay: standard at 15.0 IU/L on plate-bound TSH receptor chimera B, detected with SEAP-chimera B; RLU relative to zero serum
[20] = biological target: truncated TSH receptor chimera B (extracellular portion) fused with the secretory alkaline phosphatase (human TSHR with rat LH-CGR subsequence); test: bridge assay: standard at 50.0 IU/L on plate-bound TSH receptor chimera B, detected with SEAP-chimera B; RLU relative to zero serum
[21] = biological target: truncated TSH receptor chimera B (extracellular portion) fused with the secretory alkaline phosphatase (human TSHR with rat LH-CGR subsequence); test: bridge assay: standard at 50.0 IU/L on plate-bound TSH receptor chimera B, detected with SEAP-chimera B, chemiluminescence
[22] = biological target: truncated TSH receptor chimera B (extracellular portion) fused with the secretory alkaline phosphatase (human TSHR with rat LH-CGR subsequence); test: bridge assay: standard at 30.0 IU/L on plate-bound TSH receptor chimera B, detected with SEAP-chimera B, chemiluminescence
[23] = biological target: truncated TSH receptor chimera B (extracellular portion) fused with the secretory alkaline phosphatase (human TSHR with rat LH-CGR subsequence); test: bridge assay: standard at 0.4 IU/L on plate-bound TSH receptor chimera B, detected with SEAP-chimera B; RLU relative to zero serum
[24] = biological target: truncated TSH receptor chimera B (extracellular portion) fused with the secretory alkaline phosphatase (human TSHR with rat LH-CGR subsequence); test: bridge assay: standard at 0.6 IU/L on plate-bound TSH receptor chimera B, detected with SEAP-chimera B, chemiluminescence
[25] = biological target: truncated TSH receptor chimera B (extracellular portion) fused with the secretory alkaline phosphatase (human TSHR with rat LH-CGR subsequence); test: bridge assay: standard at 0.9 IU/L on plate-bound TSH receptor chimera B, detected with SEAP-chimera B, chemiluminescence
[26] = biological target: truncated TSH receptor chimera B (extracellular portion) fused with the secretory alkaline phosphatase (human TSHR with rat LH-CGR subsequence); test: bridge assay: standard at 0.9 IU/L on plate-bound TSH receptor chimera B, detected with SEAP-chimera B; RLU relative to zero serum
[27] = biological target: truncated TSH receptor chimera B (extracellular portion) fused with the secretory alkaline phosphatase (human TSHR with rat LH-CGR subsequence); test: bridge assay: standard at 2.0 IU/L on plate-bound TSH receptor chimera B, detected with SEAP-chimera B; RLU relative to zero serum
[28] = biological target: truncated TSH receptor chimera B (extracellular portion) fused with the secretory alkaline phosphatase (human TSHR with rat LH-CGR subsequence); test: bridge assay: standard at 30.0 IU/L on plate-bound TSH receptor chimera B, detected with SEAP-chimera B; RLU relative to zero serum
[29] = biological target: truncated TSH receptor chimera B (extracellular portion) fused with the secretory alkaline phosphatase (human TSHR with rat LH-CGR subsequence); test: bridge assay: standard at 0.1 IU/L on plate-bound TSH receptor chimera B, detected with SEAP-chimera B, chemiluminescence
[30] = biological target: truncated TSH receptor chimera B (extracellular portion) fused with the secretory alkaline phosphatase (human TSHR with rat LH-CGR subsequence); test: bridge assay: standard at 5.0 IU/L on plate-bound TSH receptor chimera B, detected with SEAP-chimera B, chemiluminescence

Sequence of truncated TSH receptor chimera B (extracellular portion) fused with the secretory alkaline phosphatase (human TSHR with rat LH-CGR subsequence) (chain, as listed by the source mutant): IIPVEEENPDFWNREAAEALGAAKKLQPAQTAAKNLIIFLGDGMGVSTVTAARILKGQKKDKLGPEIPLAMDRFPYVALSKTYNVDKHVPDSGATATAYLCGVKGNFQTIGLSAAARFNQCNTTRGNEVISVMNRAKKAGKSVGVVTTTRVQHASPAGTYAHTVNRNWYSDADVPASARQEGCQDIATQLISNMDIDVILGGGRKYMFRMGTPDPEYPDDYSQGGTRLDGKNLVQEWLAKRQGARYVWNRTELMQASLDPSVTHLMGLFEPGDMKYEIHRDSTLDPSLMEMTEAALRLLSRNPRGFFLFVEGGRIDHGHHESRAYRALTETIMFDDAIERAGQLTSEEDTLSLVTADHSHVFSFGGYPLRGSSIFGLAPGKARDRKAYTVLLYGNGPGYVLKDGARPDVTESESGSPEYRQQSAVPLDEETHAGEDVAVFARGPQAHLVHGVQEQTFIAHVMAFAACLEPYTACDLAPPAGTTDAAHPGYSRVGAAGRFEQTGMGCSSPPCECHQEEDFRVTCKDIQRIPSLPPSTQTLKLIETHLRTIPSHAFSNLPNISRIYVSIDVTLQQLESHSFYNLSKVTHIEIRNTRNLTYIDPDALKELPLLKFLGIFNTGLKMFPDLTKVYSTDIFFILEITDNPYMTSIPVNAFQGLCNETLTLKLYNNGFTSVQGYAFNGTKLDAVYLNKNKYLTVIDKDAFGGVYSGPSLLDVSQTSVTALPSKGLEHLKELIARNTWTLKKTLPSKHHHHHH

A B/B0 [1] of 14.3, an RLU Average n = 3 [2] of 136000 RLU and a B/B0 [3] of 24.1 were found for “standard solution WHO 90/672 with a standardized concentration of autoimmune antibody (TSH receptor auto-antibody standard)” in this work. For the same substance, the RLU Average n = 3 [4] was 46600 RLU, the RLU Average n = 3 [5] was 166000 RLU and the RLU Average n = 3 [6] was 183000 RLU. It also gave an RLU Average n = 3 [7] of 98400 RLU, an RLU Average n = 3 [8] of 382000 RLU and a B/B0 [9] of 4.19. It also gave a B/B0 [10] of 9.57, an RLU Average n = 3 [11] of 65800 RLU and a B/B0 [12] of 6.77. It also gave an RLU Average n = 3 [13] of 2.48e+06 RLU, a B/B0 [14] of 19.7 and a B/B0 [15] of 136. It also gave an RLU Average n = 3 [16] of 81500 RLU, a B/B0 [17] of 26.6 and a B/B0 [18] of 16.9. For the same substance, the B/B0 [19] was 361, the B/B0 [20] was 704 and the RLU Average n = 3 [21] was 4.85e+06 RLU. For the same substance, the RLU Average n = 3 [22] was 3.77e+06 RLU, the B/B0 [23] was 11.8 and the RLU Average n = 3 [24] was 117000 RLU. It also gave an RLU Average n = 3 [25] of 192000 RLU, a B/B0 [26] of 27.9 and a B/B0 [27] of 55.5. The B/B0 [28] was 548, the RLU Average n = 3 [29] was 28800 RLU and the RLU Average n = 3 [30] was 939000 RLU.
